Patent US20100273186A1, “SPLIT MUTANT HYDROLASE FUSION REPORTER AND USES THEREOF” (Promega Corporation, priority 2007, published 2010)

Tests used:
[1] = Binding of substrate to DhaA mutants
Source text: (§1) Carboxytetramethylrhodamine-C10H21NO2—Cl, carboxyfluorescein-C10H21NO2—Cl, and 5-carboxy-X-rhodamine-C10H21NO2—Cl bound to DhaA.H272F but not to DhaA.WT. Biotin-C10H21NO2—Cl bound to DhaA.H272F but not to DhaA.WT.
DhaA.H272 mutants, i.e. H272F/G/A/Q, bound to carboxytetramethylrhodamine-C10H21NO2—Cl.
A control mutant, DhaA.D106Q, single mutants DhaA.D106C, DhaA.D106Y, and DhaA.D106E, as well as double mutants DhaA.D106C:H272F, DhaA.D106E:H272F, DhaA.D106Q:H272F, and DhaA.D106Y:H272F were analyzed for binding to carboxytetramethylrhodamine-C10H21NO2—Cl. Carboxytetramethylrhodamine-C10H21NO2—Cl bound to DhaA.D106C, DhaA.D106C:H272F, DhaA.D106E, and DhaA.H272F. Thus, the bond formed between carboxytetramethylrhodamine-C10H21NO2—Cl and cysteine or glutamate at residue 106 in a mutant DhaA is stable relative to the bond formed between carboxytetramethylrhodamine-C10H21NO2—Cl and DhaA.WT. Other substitutions at position 106 alone or in combination with substitutions at other residues in DhaA may yield similar results. Further, certain substitutions at position 106 alone or in combination with substitutions at other residues in DhaA may result in a mutant DhaA that forms a bond with only certain substrates.

[2] = Binding of substrate to DhaA mutants; remark: listed apart in the source
Source text: as §1

| Molecule | binding to carboxytetramethylrhodamine-C10H21NO2—Cl [1] | binding to 5-carboxy-X-rhodamine-C10H21NO2—Cl [2] | binding to Biotin-C10H21NO2—Cl [2] | binding to carboxyfluorescein-C10H21NO2—Cl [2] |
| --- | --- | --- | --- | --- |
| DhaA.WT: wild type Rhodococcus rhodochrous dehalogenase (DhaA), SEQ ID NO:1 (protein, listed as Rhodococcus rhodochrous) MSEIGTGFPFDPHYVEVLGERMHYVDVGPRDGTPVLFLHGNPTSSYLWRNIIPHVAPSHRCIAPDLIGMGKSDKPDLDYFFDDHVRYLDAFIEALGLEEVVLVIHDWGSALGFHWAKRNPERVKGIACMEFIRPIPTWDEWPEFARETFQAFRTADVGRELIIDQNAFIEGALPKCVVRPLTEVEMDHYREPFLKPVDREPLWRFPNELPIAGEPANIVALVEAYMNWLHQSPVPKLLFWGTPGVLIPPAEAARLAESLPNCKTVDIGPGLHYLQEDNPDLIGSEIARWLPAL | not | not | not | not |
| DhaA.D106C:H272F: DhaA double mutant D106C and H272F (protein, UniProt P0A3G2 1-293, looked up, variant D106C H272F) Haloalkane dehalogenase: MSEIGTGFPFDPHYVEVLGERMHYVDVGPRDGTPVLFLHGNPTSSYLWRNIIPHVAPSHRCIAPDLIGMGKSDKPDLDYFFDDHVRYLDAFIEALGLEEVVLVIHCWGSALGFHWAKRNPERVKGIACMEFIRPIPTWDEWPEFARETFQAFRTADVGRELIIDQNAFIEGALPKCVVRPLTEVEMDHYREPFLKPVDREPLWRFPNELPIAGEPANIVALVEAYMNWLHQSPVPKLLFWGTPGVLIPPAEAARLAESLPNCKTVDIGPGLFYLQEDNPDLIGSEIARWLPAL | bound | – | – | – |
| DhaA.D106E: DhaA single mutant D106E (protein, UniProt P0A3G2 1-293, looked up, variant D106E) Haloalkane dehalogenase: MSEIGTGFPFDPHYVEVLGERMHYVDVGPRDGTPVLFLHGNPTSSYLWRNIIPHVAPSHRCIAPDLIGMGKSDKPDLDYFFDDHVRYLDAFIEALGLEEVVLVIHEWGSALGFHWAKRNPERVKGIACMEFIRPIPTWDEWPEFARETFQAFRTADVGRELIIDQNAFIEGALPKCVVRPLTEVEMDHYREPFLKPVDREPLWRFPNELPIAGEPANIVALVEAYMNWLHQSPVPKLLFWGTPGVLIPPAEAARLAESLPNCKTVDIGPGLHYLQEDNPDLIGSEIARWLPAL | bound | – | – | – |
| DhaA.D106C: DhaA mutant, Asp106 replaced with Cys (protein, UniProt P0A3G2 1-293, looked up, variant D106C) Haloalkane dehalogenase: MSEIGTGFPFDPHYVEVLGERMHYVDVGPRDGTPVLFLHGNPTSSYLWRNIIPHVAPSHRCIAPDLIGMGKSDKPDLDYFFDDHVRYLDAFIEALGLEEVVLVIHCWGSALGFHWAKRNPERVKGIACMEFIRPIPTWDEWPEFARETFQAFRTADVGRELIIDQNAFIEGALPKCVVRPLTEVEMDHYREPFLKPVDREPLWRFPNELPIAGEPANIVALVEAYMNWLHQSPVPKLLFWGTPGVLIPPAEAARLAESLPNCKTVDIGPGLHYLQEDNPDLIGSEIARWLPAL | bound | – | – | – |
